Source: patent publication US20210040194A1 (AstraZeneca / MedImmune, published 2021)

How the values were obtained:
cyno Ang2 = biological target: T1, cyno Ang2 (cyno, UniProt A0A2K5VNX6 19-496); assay: cell-based or functional assay
T1 sequence: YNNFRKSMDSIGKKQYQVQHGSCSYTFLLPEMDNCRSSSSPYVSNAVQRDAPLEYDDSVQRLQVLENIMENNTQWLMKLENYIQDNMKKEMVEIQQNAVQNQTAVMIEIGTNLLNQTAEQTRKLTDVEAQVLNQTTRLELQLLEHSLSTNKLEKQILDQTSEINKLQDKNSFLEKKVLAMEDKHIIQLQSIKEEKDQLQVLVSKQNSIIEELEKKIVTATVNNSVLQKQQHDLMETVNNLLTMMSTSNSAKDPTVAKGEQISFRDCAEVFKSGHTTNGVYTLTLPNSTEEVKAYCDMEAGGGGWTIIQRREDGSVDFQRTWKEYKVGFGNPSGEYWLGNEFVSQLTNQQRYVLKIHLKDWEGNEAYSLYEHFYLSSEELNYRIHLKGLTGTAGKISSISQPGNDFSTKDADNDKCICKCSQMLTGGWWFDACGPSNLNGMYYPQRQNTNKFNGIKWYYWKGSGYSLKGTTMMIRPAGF

Human ANG-2 (huAng2) [1] = biological target: T2, Human ANG-2 (huAng2) (human, UniProt O15123 19-496, limits assumed); assay: cell-based or functional assay
T2 sequence (looked up): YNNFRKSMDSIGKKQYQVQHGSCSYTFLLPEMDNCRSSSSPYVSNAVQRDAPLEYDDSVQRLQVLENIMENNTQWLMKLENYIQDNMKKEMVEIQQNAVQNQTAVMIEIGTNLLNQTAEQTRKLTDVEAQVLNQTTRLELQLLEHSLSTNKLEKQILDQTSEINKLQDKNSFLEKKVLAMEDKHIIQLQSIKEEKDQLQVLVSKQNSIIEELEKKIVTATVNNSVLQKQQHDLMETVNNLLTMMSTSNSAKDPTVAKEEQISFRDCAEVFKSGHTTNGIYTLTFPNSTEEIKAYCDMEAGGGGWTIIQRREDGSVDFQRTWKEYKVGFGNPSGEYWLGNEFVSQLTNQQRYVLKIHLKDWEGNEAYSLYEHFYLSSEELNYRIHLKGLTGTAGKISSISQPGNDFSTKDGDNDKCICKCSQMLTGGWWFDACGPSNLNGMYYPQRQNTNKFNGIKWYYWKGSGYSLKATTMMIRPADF

mouse Ang2 = biological target: T3, mouse Ang2 (mouse, UniProt O35608 19-496, limits assumed); assay: cell-based or functional assay
T3 sequence (looked up): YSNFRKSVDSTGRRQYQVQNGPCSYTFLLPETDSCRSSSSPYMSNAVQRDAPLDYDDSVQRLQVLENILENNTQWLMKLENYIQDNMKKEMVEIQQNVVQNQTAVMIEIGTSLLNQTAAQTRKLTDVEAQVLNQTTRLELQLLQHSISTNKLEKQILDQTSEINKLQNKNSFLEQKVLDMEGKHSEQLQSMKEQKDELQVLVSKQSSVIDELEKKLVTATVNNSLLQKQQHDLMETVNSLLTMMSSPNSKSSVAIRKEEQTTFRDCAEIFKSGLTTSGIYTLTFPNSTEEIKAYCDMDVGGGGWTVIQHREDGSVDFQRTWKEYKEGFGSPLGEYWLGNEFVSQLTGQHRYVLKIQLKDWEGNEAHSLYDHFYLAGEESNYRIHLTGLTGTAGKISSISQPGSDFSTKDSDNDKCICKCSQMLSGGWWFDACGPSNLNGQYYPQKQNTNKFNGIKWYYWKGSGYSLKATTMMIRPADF

Human ANG-2 (huAng2) [2] = biological target: T2, Human ANG-2 (huAng2); assay: KinExA equilibrium, alternate model (ref [IgG])
Protocol: (§1) Human ANG-2 (huAng2) protein was coated onto UltraLink® Biosupport beads (PIERCE, Rockford, Ill.) at concentrations of 5 mg/mL and 30 mg/mL in coating buffer (50 mM sodium carbonate buffer, pH 9). Coated beads were then separated (gentle pulse spin) from unreacted huAng2 protein solution, and blocked with 1M Tris, pH 8, containing BSA at 10 mg/mL) for approximately 15 minutes at room temperature. After this, the bead slurry was spun to remove the blocking solution, and then the block step was repeated for approximately 2 hours using fresh block buffer, and stored at 4° C. until used. Prior to use, the huAng2-coated beads were transferred to a bead vial, resuspended in approximately 27 mLs of instrument buffer (HBS-P buffer, pH 7.4; contains 10 mM HEPES, 0.15M NaCl, 0.005% P20+0.02% NaN3), and affixed to the KinExA instrument. […] These concentrations of bispecific antibody were chosen to allow measurements to be made under both receptor- and KD-controlled conditions, which would allow for more rigorous estimations of reagent activity and affinity, respectively. Two-fold serial dilutions of huAng2 protein were then titrated across nine of the tubes containing the bispecific solutions, followed by 10-fold-dilutions across two more tubes, leaving one tube as the bispecific-only, “zero” control. […]

Human ANG-2 (huAng2) [3] = biological target: T2, Human ANG-2 (huAng2); assay: KinExA equilibrium, standard affinity model (ref [Ligand])
Protocol: as §1

Cyno pTie2 EC50 (nM) (cyno Ang2): 3.47 nM
Hu pTie2 EC50 (nM), Hek293-Tie2 cells (Human ANG-2 (huAng2) [1]): 2.29 nM
Mu pTie2 EC50 (nM) (mouse Ang2): 12.2 nM
Kd (Human ANG-2 (huAng2) [2]): 4.35 pM
Kd (Human ANG-2 (huAng2) [3]): 23.3 pM
B1: BiS3Ab-VEGF H1RK-ANG-2 (bispecific antibody, human IgG1, kappa)
heavy: not shown
light: EIVLTQSPATLSLSPGERATLSCRASQSVHSSYLAWYQQKPGQAPRLLIYGASSRATGIPDRFSGSGSGTDFTLTISRLEPEDFAVYYCQQSYRTPSFGQGTRLEIKRTVAAPSVFIFPPSDEQLKSGTASVVCLLNNFYPREAKVQWKVDNALQSGNSQESVTEQDSKDSTYSLSSTLTLSKADYEKHKVYACEVTHQGLSSPVTKSFNRGEC
notes: Full-length IgG (Fab arm anti-VEGF-A) with an anti-ANG-2 scFv linked to the C-terminus of each heavy chain (BiS3 format); also called BiSAb-VEGF H1RK-ANG-2; Bs3Ab-VEGF-Ang2
